Results on three molecules are retold here after patent US20240174744A1 (SCIRHOM, published 2024).

In assay [1] the target is T1, miR2-FL-WT-FLAG (mouse iRhom2 full length wild type C-terminally tagged with the triple-FLAG epitope) (mouse, UniProt Q80WQ6 1-827).
T1 construct: also called expressed by MEF-DKO-miR2-FL-WT-FLAG cells
T1 sequence: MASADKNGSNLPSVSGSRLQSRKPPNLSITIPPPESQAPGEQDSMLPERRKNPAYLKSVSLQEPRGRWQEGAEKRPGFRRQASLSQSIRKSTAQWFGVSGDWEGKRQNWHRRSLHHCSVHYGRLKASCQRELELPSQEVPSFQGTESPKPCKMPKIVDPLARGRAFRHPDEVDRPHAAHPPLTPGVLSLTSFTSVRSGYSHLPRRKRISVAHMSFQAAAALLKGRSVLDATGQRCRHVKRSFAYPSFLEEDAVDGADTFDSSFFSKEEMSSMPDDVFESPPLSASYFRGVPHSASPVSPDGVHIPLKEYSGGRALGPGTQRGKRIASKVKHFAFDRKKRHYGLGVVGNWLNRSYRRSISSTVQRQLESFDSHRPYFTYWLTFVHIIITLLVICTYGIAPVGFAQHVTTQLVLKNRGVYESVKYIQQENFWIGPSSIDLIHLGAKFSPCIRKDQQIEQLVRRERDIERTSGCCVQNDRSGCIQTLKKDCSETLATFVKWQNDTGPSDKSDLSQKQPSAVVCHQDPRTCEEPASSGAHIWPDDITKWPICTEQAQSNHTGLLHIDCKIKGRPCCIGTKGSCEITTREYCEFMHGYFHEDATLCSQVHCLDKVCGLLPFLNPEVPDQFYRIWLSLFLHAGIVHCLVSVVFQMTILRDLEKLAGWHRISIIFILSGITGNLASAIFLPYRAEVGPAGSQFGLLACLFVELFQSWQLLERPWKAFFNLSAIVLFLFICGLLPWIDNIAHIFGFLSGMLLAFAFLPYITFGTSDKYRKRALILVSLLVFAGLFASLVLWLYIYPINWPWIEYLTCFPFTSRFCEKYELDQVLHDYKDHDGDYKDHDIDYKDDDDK
As to the kind of experiment: FACS on MEF-DKO-miR2-FL-WT-FLAG cells.

In assay [2] the target is T2, hiR2-FL-WT-FLAG (human iRhom2 full length wild type C-terminally tagged with the triple-FLAG epitope) (human, UniProt Q6PJF5 1-856).
T2 construct: also called expressed by MEF-DKO-hiR2-FL-WT-FLAG cells
T2 sequence: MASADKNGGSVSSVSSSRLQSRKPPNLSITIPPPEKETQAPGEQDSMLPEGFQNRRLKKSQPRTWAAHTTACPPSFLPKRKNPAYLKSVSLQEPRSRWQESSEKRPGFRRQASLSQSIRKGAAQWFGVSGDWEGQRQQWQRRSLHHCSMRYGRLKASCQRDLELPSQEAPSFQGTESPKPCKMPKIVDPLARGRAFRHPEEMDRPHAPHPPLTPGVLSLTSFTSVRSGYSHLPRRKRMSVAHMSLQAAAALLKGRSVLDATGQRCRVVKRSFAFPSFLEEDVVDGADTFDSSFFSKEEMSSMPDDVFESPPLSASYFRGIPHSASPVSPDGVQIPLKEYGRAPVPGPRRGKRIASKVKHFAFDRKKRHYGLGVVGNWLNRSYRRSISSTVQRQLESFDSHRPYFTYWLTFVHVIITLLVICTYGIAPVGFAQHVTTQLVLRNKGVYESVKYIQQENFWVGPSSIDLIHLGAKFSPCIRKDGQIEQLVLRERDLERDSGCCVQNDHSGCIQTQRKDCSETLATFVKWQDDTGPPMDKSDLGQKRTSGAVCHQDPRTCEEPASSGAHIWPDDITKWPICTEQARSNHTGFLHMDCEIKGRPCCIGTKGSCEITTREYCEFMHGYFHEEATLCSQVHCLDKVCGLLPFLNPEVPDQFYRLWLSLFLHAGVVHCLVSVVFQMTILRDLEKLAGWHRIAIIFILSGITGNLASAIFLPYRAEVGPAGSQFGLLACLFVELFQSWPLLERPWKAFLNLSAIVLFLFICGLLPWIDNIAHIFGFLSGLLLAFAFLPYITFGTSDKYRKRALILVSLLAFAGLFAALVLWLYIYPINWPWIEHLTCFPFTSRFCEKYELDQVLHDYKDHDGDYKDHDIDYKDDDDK
Kind of assay: FACS, MEF-DKO-hiR2-FL-WT-FLAG cells, 3 µg/ml. On the procedure: In brief, immortalized MEF-DKO-EV control cells, MEF-DKO-hiR2-FL-WT-FLAG cells and MEF-DKO-miR2-FL-WT-FLAG cells were harvested with 10 mM EDTA in PBS, washed and resuspended in FACS buffer (PBS, 3% FBS, 0.05% sodium azide), and seeded in Nunc U-bottom 96-well plates (Thermo Fisher Scientific, USA) at approximately 3×10⁵ cells per well. To pellet cells and remove supernatants, the plates were centrifuged at 1,500 rpm and 4° C. for 3 minutes. For primary staining, cells were resuspended in 100 μl per well of either FACS buffer alone (controls), mouse monoclonal anti-FLAG IgG (Sigma-Aldrich, USA) at 3 μg/ml FACS buffer or the antibodies of the present disclosure also at 3 μg/ml FACS buffer and incubated on ice for 1 hour. Afterwards, plates were centrifuged at 1,500 rpm and 4° C. for 3 minutes and washed twice with 200 μl per well of FACS buffer. For secondary staining, cells were spun down and resuspended in 100 μl per well of PE-conjugated goat anti-mouse IgG F(ab′)2 detection fragment (Dianova, Germany) diluted 1:100 in FACS buffer. Protected from light, the cell suspensions were incubated on ice for 1 hour. Plates were then centrifuged at 1,500 rpm and 4° C. for 3 minutes and washed three times with 200 μl per well of FACS buffer. Finally, cells were resuspended in 150 μl per well of FACS buffer and analyzed using a BD Accuri™ C6 Plus flow cytometer (Becton Dickinson, Germany).

B1: antibody 3 (antibody, V domains shown)
VH: QVTLKESGPGILQPSQTLSLTCSFSGFSLTTFAMGIGWVRQPSGKGLEWLAHIWWDGEKYNNPVLKSRLTISKDTSKNQVFLRIANVDTPDTATYYCARISSIYYIIDNWGQGTSVTVSS
VL: DIVLTQSPATLSVTPGHSVSLSCRASQSISNNLHWYQKKSHESPRLLIKYVSQSISGIPSRFSGSGSGTDFTLSINSVETEDFGMYFCQQSYNWPLTFGAGTKLELK
notes: Mouse IgG, kappa light chain; also called clone #3; purified antibody 3
Take B1: in assay [1], the binding result was “no binding (tested: 3 µg/ml)”.

B2: antibody 47 (antibody, V domains shown)
VH: QVQLQQSGAELVRPGTSVKVSCKASGYAFTNYLIEWVKQRPGQGLEWIGVINPGSGFTNYNEKFKGKAILNADKSSSTAYMQLISLTSEDSAVYFCARDLKRAMDHWGQGTSVTVSS
VL: DIQMTQSPASQSASLGESVTITCLASQTIGTWLAWYQQKPGKSPQLLIHAATSLADGVPSRFSGSGSGTKFSFKISSLQAEDFVSYYCQQIYSSPYTFGGGTKLEIK
notes: Mouse IgG, kappa light chain; also called clone #47
With B2, the binding result in assay [2] is “binds”.

B3: antibody 51 (antibody, V domains shown)
VH: QVQLQQSGAELVKPGASVKISCKASGYTFSNYWMNWVKQRPGKGLEWIGQIYPGDGDTKYNGKFKNKATLTADKSSSTAYMQFSSLTSEDSAVYFCARGDLVFVYWGLGTLVTVSA
VL: DVQITQSPSYLAVSPGETITINCRASKNIRKYLAWYQEKPGKTNKLLIYSGSTSQSGVPSRFSGSGSGTDFTLTISSLEPEDFAMYYCQQHNEYPYTFGGGTKLEIK
notes: Mouse IgG, kappa light chain; also called clone #51
Turning to B3, the binding result in assay [2] is “binds”.
